Assay results from patent publication US10456446B2, “Use of human small leucine zipper protein in osteogenesis procedure” (Korea University Research and Business Foundation, priority 2013, dated 2019).

How the values were obtained:
Format in all cases: binding
PPARγ2 and HDAC3 = molecular target: T1, PPARγ2 and HDAC3 (Homo sapiens, UniProt P37231); assay: GST pull-down, effect on interaction between PPARγ2 and HDAC3; settings: in the presence of ligand (10 nM RZD, 24 hours)
T1 construct: expressed in transfected cells; host or cells: 293T
T1 sequence (P37231 1-505): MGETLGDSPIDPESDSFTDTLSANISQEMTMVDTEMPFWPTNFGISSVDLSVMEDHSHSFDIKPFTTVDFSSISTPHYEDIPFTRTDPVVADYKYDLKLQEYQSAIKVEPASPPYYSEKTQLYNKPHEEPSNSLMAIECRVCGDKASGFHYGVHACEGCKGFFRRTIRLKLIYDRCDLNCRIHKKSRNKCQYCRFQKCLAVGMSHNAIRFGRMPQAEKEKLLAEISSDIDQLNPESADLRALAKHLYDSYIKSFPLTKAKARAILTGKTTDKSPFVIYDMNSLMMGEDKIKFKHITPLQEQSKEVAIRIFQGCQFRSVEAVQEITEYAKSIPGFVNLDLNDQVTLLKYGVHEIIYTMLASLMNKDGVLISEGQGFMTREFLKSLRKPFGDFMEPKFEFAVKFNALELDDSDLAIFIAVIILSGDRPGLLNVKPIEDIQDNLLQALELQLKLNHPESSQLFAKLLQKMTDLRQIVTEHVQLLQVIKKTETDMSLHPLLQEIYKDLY
Experimental: (§1) Therefore, in order to understand a regulation mechanism of sLZIP in the PPARγ2 transcriptional activity by binding to the FABP4 promoter region, an effect of sLZIP on the interaction between PPARγ2 and HDAC3 was examined. For this purpose, 293T cells were transfected with GST-HDAC3, Myc-PPARγ2 and Flag-sLZIP, and were treated or not treated with 10 nM of RZD for 24 hours. Cell lysates were subjected to GST pull-down analysis using a glutathione 4B bead, and a protein complex was analyzed in SDS-PAGE, and then immunoblotted with anti-GST, anti-Myc and anti-Flag antibodies (FIG. 6A). GST-HDAC3, GST-PPARγ2, Myc-PPARγ2, Flag-sLZIP and Ha-UB were expressed in the 293T cells, and the cells were treated with 10 nM of RZD for 24 hours. Cell lysates were subjected to GST pull-down analysis (FIG. 6B). GST-PPARγ2 and Flag-sLZIP were expressed in the 293T cells and treated with 10 nM of RZD for 24 hours. Cell lysates were subjected to GST pull-down analysis, and a protein complex was analyzed in SDS-PAGE, and then immunoblotted with anti-PGC1α, anti-GST and anti-Flag antibodies (FIG. 6C).

PPARγ2 and PGC1α = molecular target: T2, PPARγ2 and PGC1α (Homo sapiens, UniProt P37231); assay: GST pull-down, coactivator PGC1α on PPARγ2; settings: 10 nM RZD for 24 hours
T2 construct: expressed in transfected cells; host or cells: 293T (PGC1α endogenous)
T2 sequence (P37231 1-505): T1 sequence (P37231 1-505)
Experimental: as §1

HDAC3 = molecular target: T3, HDAC3 (Homo sapiens, UniProt O15379); assay: GST pull-down of sLZIP with HDAC3 in 293T cells
T3 construct: expressed in transfected cells; host or cells: 293T
Experimental: 293T cells were obtained and washed with cold PBS. The cells were re-suspended in an IP lysis buffer [25 mM of Tris-HCl (pH 7.4), 150 mM of NaCl, 1 mM of EDTA, 1% NP-40 and 5% glycerol, and a protease inhibitor]. A suspension was centrifuged at 16,000×g for 20 minutes at 4° C. Supernatants were collected and incubated with 0.5 μg of appropriate antibodies and 25 μl of protein A/G-agarose or a GST Sepharose 4B bead for 24 hours at 4° C. A protein complex was centrifuged at 1,000×g with a cold IP lysis buffer for 1 minute and washed five times. The final pellet was re-suspended in 50 μl of an SDS-sample buffer containing 5% β-mercaptoethanol and heated for 10 minutes at 100° C. A protein sample was isolated in SDS-PAGE (8 to 10%) and transferred to nitrocellulose membranes. Co-precipitated proteins were detected according to western blotting using specific antibodies.
For this purpose, 293T cells were transiently transfected with PPARγ2 (0.5 μg), β-galactosidase (0.1 μg), FABP4-Luc reporter genes (0.2 μg) and sLZIP (0.1 μg). […] A promoter activity was measured according to luciferase analysis. […] After the transfection, the cells were stimulated with or without 10 nM of RZD, and a promoter activity was measured (FIG. 4B). […] GFP-sLZIP expression constructs were expressed in C3H10T1/2 cells, rabbit anti-HDAC3 antibodies and Texas Red-labeled anti-rabbit antibodies were used and analysis was performed under a fluorescence microscope. […] A protein complex was analyzed in SDS-PAGE, and anti-GST and anti-Flag antibodies were used for immunoblotting (FIG. 4E). *, P<0.05; **, P<0.01
For this purpose, 293T cells were transfected with GST-PPARγ2 and Flag-sLZIP and were treated or not treated with 10 nM of RZD for 24 hours. […] A protein complex was analyzed in SDS-PAGE, and immunoblotted with anti-GST and anti-Flag antibodies. […] The cell lysates were GST pull-down analyzed (FIG. 5C). […] The cell lysates were GST pull-down analyzed (FIG. 5D). […] A protein complex was analyzed in SDS-PAGE, and then immunoblotted with anti-NCoR1 and anti-Flag antibodies (FIG. 5E). […]

T3 sequence (O15379 whole entry, species assumed): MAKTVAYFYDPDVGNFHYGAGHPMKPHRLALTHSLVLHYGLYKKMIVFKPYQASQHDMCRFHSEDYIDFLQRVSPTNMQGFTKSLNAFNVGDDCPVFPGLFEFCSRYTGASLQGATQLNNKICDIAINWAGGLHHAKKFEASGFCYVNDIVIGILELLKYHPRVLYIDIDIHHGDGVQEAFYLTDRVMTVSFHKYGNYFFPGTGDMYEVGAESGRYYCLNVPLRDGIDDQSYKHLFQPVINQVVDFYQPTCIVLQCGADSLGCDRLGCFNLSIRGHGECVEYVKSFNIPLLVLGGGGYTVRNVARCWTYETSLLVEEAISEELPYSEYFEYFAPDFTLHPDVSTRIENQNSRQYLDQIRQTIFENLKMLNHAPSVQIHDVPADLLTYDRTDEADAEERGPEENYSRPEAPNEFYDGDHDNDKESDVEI

B1: sLZIP: human small leucine-zipper protein, isoform of LZIP, 354 amino acids, no transmembrane domain, GenBank FJ263669, SEQ ID NO: 1 (protein, listed as Homo sapiens)
chain: MELELDAGDQDLLAFLLEESGDLGTAPDEAVRAPLDWALPLSEVPSDWEVDDLLCSLLSPPASLNILSSSNPCLVHHDHTYSLPRETVSMDLESESCRKEGTQMTPQHMEELAEQEIARLVLTDEEKSLLEKEGLILPETLPLTKTEEQILKRVRRKIRNKRSAQESRRKKKVYVGGLESRVLKYTAQNMELQNKVQLLEEQNLSLLDQLRKLQAMVIEISNKTSSSSMYSSDTRGSLPAEHGVLSRQLRALPSEDPYQLELPALQSEVPKDSTHQWLDGSDCVLQAPGNTSCLLHYMPQAPSAEPPLEWPFPDLFSEPLCRGPILPLQANLTRKGGWLPTGSPSVILQDRYSG
- interaction between PPARγ2 and HDAC3 (PPARγ2 and HDAC3): enhanced interaction between PPARγ2 and HDAC3
- complementing of coactivator PGC-la for PPARγ2 (PPARγ2 and PGC1α): inhibited
- interaction with HDAC3 (HDAC3; 10 nM RZD for 24 hours): remained as being interacted with sLZIP
- interaction with HDAC3 (HDAC3; GST-HDAC3 and Flag-sLZIP, 293T cells, GST pull-down): interacted with HDAC3
- interaction with HDAC3 in a PPARγ2 corepressor complex (HDAC3; no RZD treated): interacted with HDAC3
